Test results: patent US9731032B2, “Aptamers for tumor initiating cells” (THE CLEVELAND CLINIC FOUNDATION, priority 2013, dated 2017)

Assays:
[1] = tested on: GS5, a well-characterized TIC line; assay: GS5 proliferation; assay type: cell-based
[2] = tested on: GS5; assay: GS5 sphere formation (TIC self-renewal); assay type: cell-based
From the text: (§2) We further evaluated whether this drug delivery system can be used to treat TIC-derived tumors. […] We successfully encapsulated DI into our brain-penetration nanoparticles, which were administrated via a single infusion into rat brains bearing GS5-derived tumors.

[3] = tested on: CD133+ cell population; assay: CD133+ cell population; assay type: cell-based
From the text: as §2

[4] = tested on: GS5-derived tumors; assay: Survival of rats bearing GS5-derived brain tumors after a single infusion; assay type: in vivo; conditions: single infusion into rat brains bearing GS5-derived tumors
From the text: as §2

[5] = tested on: GBM cells from GBM1 (08-387), GBM2 (4121), GBM3 (08-322), GBM4 (3691) xenografts; assay: Neurosphere formation assay of aptamer-high vs aptamer-low GBM cells; assay type: cell-based, human; conditions: four GBMs tested
Protocol: After overnight recovery of GBM cells from tissue dissociation, each Cy5-labeled aptamer was incubated with each specimen for 30 min. After washing thrice, labeled GBM cells were subjected to cell sorting. For the sphere formation assay, 10 cells of either aptamer^high and aptamer^low GBM cells sorted by FACS were directly plated into each well of a six well plate containing 200 μL of TIC culturing medium similar to our prior descriptions. After 10 to 14 days, the number of tumorspheres in each well was counted and plotted. For the cell proliferation assay, aptamer^high and aptamer^low GBM cells were sorted into each 15 mL tube, and equal numbers of cells were plated into 96 wells. Differences in cell growth were measured using Cell-Titer Glow (Promega™) according to the manufacturer's instructions and prior reports. Hjelmeland et al., PLoS biology, 8:e1000319 (2010); Li et al., Cancer cell, 15:501-13 (2009).

[6] = tested on: GBM1 (08-387) cells injected intracranially; assay: In vivo tumorigenic potential of aptamer-high vs aptamer-low GBM cells; set-up: species or system mice; conditions: for tumor incidence, aptamer-high cells / tumor incidence, aptamer-low cells: 300 cells implanted; for survival of mice injected with aptamer-high cells: 3000 or 300 cells intracranially, vs aptamer-low cells
Protocol: To determine tumorigenic potential, 300 or 3000 viable aptamer^high or aptamer^low GBM cells were intracranially injected into athymic/nude immunocompromised mice as we have previously described. Animals were maintained until the development of neurological signs including lethargy, seizure, ataxia, or paralysis or for a maximum of 60 days, when they were sacrificed. All animal procedures were performed in accordance with a Cleveland Clinic IACUC approved protocol.

[7] = tested on: ReNCell CX immortalized human neural progenitors or primary human fetal neural progenitors; assay: Flow cytometry aptamer binding to non-neoplastic neural progenitors
Protocol: (§1) Each FITC-labeled aptamer candidate was incubated with TICs or non-TICs in binding buffer on ice for 30 min. The cells were washed three times with binding buffer, and the pellets with the bound sequences were resuspended in 200 μL binding buffer. The fluorescence intensity was determined with a LSR II (BD Immunocytometry Systems) by counting 10,000 events. The FITC-labeled unselected single strand DNA library was used as a negative control. To determine the specificity of the selected aptamers, aptamer binding to additional GBM cells (08-322, 4121, U87MG) or neural progenitors (RenCell c-myc immortalized human neural progenitors, Millipore; human fetal neural progenitors, Lonza) was determined. For determination of aptamer binding to differentiated TICs, TICs were plated on Geltrex-coated plates in the presence of 10% serum and harvested after five days for FACS analysis.

[8] = tested on: TICs; assay: Flow cytometry to monitor aptamer binding to TICs; set-up: species or system human; conditions: GBM1, GBM2, GBM3
Protocol: as §1
To further evaluate the specificity of TIC-enriched aptamers, the fold change in fluorescence was calculated. Fluorescence shift was calculated using the equation (Faptamer−Fcell)/(Flibrary−Fcell), where Faptamer, Flibrary and Fcell refers to the fluorescence value of the aptamer, library, and cell itself. Using this calculation, specificity of aptamers A2-A6 for TICs in comparison to non-TICs was shown for all three GBMs tested (FIG. 2A-C).

With `CCN1/C(=C/C=C/C=C/c2sc3ccccc3[n+]2CC)Sc2ccccc21` [DI, dithiazanine iodide] the IC50 [1] was 79 nM, the “inhibition of GS5 sphere formation” value [2] was 94% and the “decrease of the CD133+ cell population” value [3] was 57%. The median survival [4] was 177 days.

B1: AAAGCTCCTTGGAATAGTCTAATACCGGA (nucleic acid)
DNA: ATCCACGAGTGACGCAGCACGAGCAACACAAAAGCTCCTTGGAATAGTCTAATACCGGAGCGAGAAAGCTGGACACGGTGGCTTAGT
modifications: listed as DNA, chemistry not given here
notes: TIC-specific DNA aptamer
In the case of B1, the “neurosphere formation capacity of aptamer-enriched cells” value (from here on “neurosphere formation capacity”) [5] is reported as “significantly segregated cells with neurosphere formation capacity in all four GBMs tested”, the “tumor incidence, aptamer-high cells” value [6] is reported as “All mice” and the “tumor incidence, aptamer-low cells” value [6] is reported as 3 of 4. The “survival of mice injected with aptamer-high cells” value [6] was “significantly reduced”.

B2: TGTGTATAAAGGGGCGGTGAAAAGCGAAT (nucleic acid)
DNA: ATCCACGAGTGACGCAGCACAGTGATCAGTTGTGTATAAAGGGGCGGTGAAAAGCGAATTCCAGTCGACTGGACACGGTGGCTTAGT
modifications: listed as DNA, chemistry not given here
notes: TIC-specific DNA aptamer
In the case of B2, the “binding to nonneoplastic neural progenitors” value [7] is reported as “bound both sets of non-neoplastic brain cells”, the “neurosphere formation capacity” value [5] is reported as “greater neurosphere formation capacity in three of four GBMs tested” and the “tumor incidence, aptamer-high cells” value [6] is reported as “All mice”. For the same molecule, the “tumor incidence, aptamer-low cells” value [6] was 2 of 4 and the “survival of mice injected with aptamer-high cells” value [6] was “significantly reduced”.

B3: CCGTAGCTACGACGGAGGAAACTATGTTA (nucleic acid)
DNA: ATCCACGAGTGACGCAGCATGTTTAGGAAACCGTAGCTACGACGGAGGAAACTATGTTAAACATCCCCATGGACACGGTGGCTTAGT
modifications: DNA, backbone and methylation of C not given here
notes: TIC-specific DNA aptamer
In the case of B3, the “neurosphere formation capacity” value [5] is reported as “significantly segregated cells with neurosphere formation capacity in all four GBMs tested”.

B4: GACGAGCTAAGAACCTTTAGGAGTGGAAA (nucleic acid)
DNA: ATCCACGAGTGACGCAGCACAGAGTGGAAGACGAGCTAAGAACCTTTAGGAGTGGAAAAGATAGCTCATGGACACGGTGGCTTAGT
modifications: DNA, backbone and methylation of C not given here
notes: TIC-specific DNA aptamer
B4 was tested, and the “fluorescence shift (Faptamer−Fcell)/(Flibrary−Fcell): specificity for TICs in comparison to non-TICs” value [8] was “greater binding to TICs in GBM1 and GBM2, but not GBM3” and the “neurosphere formation capacity” value [5] was “greater neurosphere formation capacity in three of four GBMs tested”.

B5: AGAACTGGCCTTACTACGAAAAGTCCTTG (nucleic acid)
DNA: ATCCACGAGTGACGCAGCACCGAGAGGAGAGAACTGGCCTTACTACGAAAAGTCCTTGGTTGCCAGGGGTGGACACGGTGGCTTAGT
modifications: listed as DNA, chemistry not given here
notes: TIC-specific DNA aptamer
B5 was tested, and the “neurosphere formation capacity” value [5] was “significantly segregated cells with neurosphere formation capacity in all four GBMs tested”.
